Laboratory results: the RNAGym collection of RNA variant scans (doi:10.7554/elife.90254)

B1: LINE1-mini (parent)
chain: GGCAGAGCUCAACACAGCGUGGCAAAGUGGCUGUGGCUAGACUGCC

Variants of: B1
Test: self-cleavage, relative activity (ratio to wild type); higher = more cleavage; in vitro, sequencing; the parent is a self-cleaving ribozyme
With G1U G33U the self-cleavage was 0.06. For U9G G30C, the self-cleavage was 0.06. With C10A G35A the self-cleavage was 0.04. In the case of C37U U38A, the self-cleavage is reported as 0.04. In the case of C15A U28A, the self-cleavage is reported as 0.1. In the case of G29U C31U, the self-cleavage is reported as 0.19. In the case of A12C G36U, the self-cleavage is reported as 0.03. Variant G17A G35A has a self-cleavage of 0.04. Variant A12U C23A has a self-cleavage of 0.27. C8U C23U gave a self-cleavage of 0.25. In the case of C3G U28G, the self-cleavage is reported as 0.19. In the case of C3U U32C, the self-cleavage is reported as 0.19. In the case of U34G G35A, the self-cleavage is reported as 0.06. Work on G2C A4U yielded a self-cleavage of 0.08. For A11C C46A, the self-cleavage was 0.03. In the case of G5A G21C, the self-cleavage is reported as 0.13. A11U A16C gave a self-cleavage of 0.02. C18G showed a self-cleavage of 0.52. For G5U C37G, the self-cleavage was 0.07. Work on A12G C42G yielded a self-cleavage of 0.02. C10A C46U gave a self-cleavage of 0.07. Work on G33C G40U yielded a self-cleavage of 0.06. G7C G35C showed a self-cleavage of 0.06. In the case of G35C A39U, the self-cleavage is reported as 0.06. For C10A G19U, the self-cleavage was 0.06. With C10A G21C the self-cleavage was 0.04. A6C C23U showed a self-cleavage of 0.62. In the case of A26C A41G, the self-cleavage is reported as 0.23. Work on C10G U43G yielded a self-cleavage of 0.02. Variant G2A G33A has a self-cleavage of 0.2. G17A C31A showed a self-cleavage of 0.13. With A11C U20A the self-cleavage was 0.02. With C13A G27C the self-cleavage was 0.1. With C13U A24C the self-cleavage was 0.15. C10U U20C gave a self-cleavage of 0.28. With C13G A41C the self-cleavage was 0.04. With C13G A41U the self-cleavage was 0.17. Variant U9G G44A has a self-cleavage of 0.12. C8G C45G gave a self-cleavage of 0.08. G1A C3U gave a self-cleavage of 0.47. A14U U43A gave a self-cleavage of 0.16. Work on U9G C23A yielded a self-cleavage of 0.11. With G19C U38A the self-cleavage was 0.05. G5A C42U showed a self-cleavage of 1.53. Variant G1C G22A has a self-cleavage of 0.12. In the case of G19U U28G, the self-cleavage is reported as 0.73. In the case of G30C A41G, the self-cleavage is reported as 0.21. For U28A C37A, the self-cleavage was 0.04. With C23A G35A the self-cleavage was 0.23. With G5A G33A the self-cleavage was 0.1. Work on U20A G40C yielded a self-cleavage of 0.06. With A16U C18G the self-cleavage was 0.05. Variant C15A A16U has a self-cleavage of 0.06. For G2C C23G, the self-cleavage was 0.12. Work on C3G A26U yielded a self-cleavage of 0.56. With G7A A16U the self-cleavage was 0.32. U20C U38A showed a self-cleavage of 0.19. For G22A U38C, the self-cleavage was 0.68. A4G G44C showed a self-cleavage of 0.08. Variant G36C C45A has a self-cleavage of 0.07. A14G C23U gave a self-cleavage of 0.85. Work on G5A G36U yielded a self-cleavage of 0.14. Work on C18G G22U yielded a self-cleavage of 0.87. With A26C U28C the self-cleavage was 0.4. In the case of C13U U32G, the self-cleavage is reported as 0.21. Work on A6U C46G yielded a self-cleavage of 0.41. C15G U38C showed a self-cleavage of 0.03. A16G G44A showed a self-cleavage of 0.25. Variant A25C G36A has a self-cleavage of 0.21. Work on A24U C37A yielded a self-cleavage of 0.05. In the case of A11G A14U, the self-cleavage is reported as 0.03. C10U A16C showed a self-cleavage of 0.06. G2A C45G showed a self-cleavage of 0.75. For G7C A12U, the self-cleavage was 0.07. In the case of U9C G27C, the self-cleavage is reported as 0.03. U9C G27A gave a self-cleavage of 0.03. Work on G2A U38A yielded a self-cleavage of 0.71. A12C G19C gave a self-cleavage of 0.02. In the case of A16C C46A, the self-cleavage is reported as 0.1. A16C C46G gave a self-cleavage of 0.09. U43A C45G showed a self-cleavage of 0.08. Work on A39G C45U yielded a self-cleavage of 0.06. For G29A G40C, the self-cleavage was 0.08. For G7C C42G, the self-cleavage was 0.1.
